# Test results: US20220267751
# T1: recombinant plasminogen
# T1 chain: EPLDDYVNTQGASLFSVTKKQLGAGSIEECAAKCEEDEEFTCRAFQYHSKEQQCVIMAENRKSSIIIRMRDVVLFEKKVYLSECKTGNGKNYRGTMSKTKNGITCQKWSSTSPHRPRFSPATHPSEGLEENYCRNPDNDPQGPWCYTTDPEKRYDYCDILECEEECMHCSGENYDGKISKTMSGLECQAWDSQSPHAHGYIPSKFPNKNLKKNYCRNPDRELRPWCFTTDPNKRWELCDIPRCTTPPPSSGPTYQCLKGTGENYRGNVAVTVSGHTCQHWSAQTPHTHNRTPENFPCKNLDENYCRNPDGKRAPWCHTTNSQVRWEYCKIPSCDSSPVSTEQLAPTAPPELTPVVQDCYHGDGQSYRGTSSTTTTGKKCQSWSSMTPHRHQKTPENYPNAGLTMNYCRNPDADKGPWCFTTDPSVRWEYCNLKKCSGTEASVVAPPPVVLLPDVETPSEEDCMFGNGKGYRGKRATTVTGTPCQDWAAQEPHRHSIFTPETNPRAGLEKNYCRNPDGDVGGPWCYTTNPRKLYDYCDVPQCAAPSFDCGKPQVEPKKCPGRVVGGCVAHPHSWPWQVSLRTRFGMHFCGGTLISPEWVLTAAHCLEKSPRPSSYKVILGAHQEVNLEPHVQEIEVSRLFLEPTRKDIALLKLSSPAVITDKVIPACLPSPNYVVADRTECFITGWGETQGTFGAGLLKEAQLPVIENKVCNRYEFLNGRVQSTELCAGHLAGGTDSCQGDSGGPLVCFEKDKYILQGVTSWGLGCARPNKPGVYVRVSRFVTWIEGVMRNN
# T2: native plasminogen glycoform I (purified in-house from human plasma), P00747
# T2 chain: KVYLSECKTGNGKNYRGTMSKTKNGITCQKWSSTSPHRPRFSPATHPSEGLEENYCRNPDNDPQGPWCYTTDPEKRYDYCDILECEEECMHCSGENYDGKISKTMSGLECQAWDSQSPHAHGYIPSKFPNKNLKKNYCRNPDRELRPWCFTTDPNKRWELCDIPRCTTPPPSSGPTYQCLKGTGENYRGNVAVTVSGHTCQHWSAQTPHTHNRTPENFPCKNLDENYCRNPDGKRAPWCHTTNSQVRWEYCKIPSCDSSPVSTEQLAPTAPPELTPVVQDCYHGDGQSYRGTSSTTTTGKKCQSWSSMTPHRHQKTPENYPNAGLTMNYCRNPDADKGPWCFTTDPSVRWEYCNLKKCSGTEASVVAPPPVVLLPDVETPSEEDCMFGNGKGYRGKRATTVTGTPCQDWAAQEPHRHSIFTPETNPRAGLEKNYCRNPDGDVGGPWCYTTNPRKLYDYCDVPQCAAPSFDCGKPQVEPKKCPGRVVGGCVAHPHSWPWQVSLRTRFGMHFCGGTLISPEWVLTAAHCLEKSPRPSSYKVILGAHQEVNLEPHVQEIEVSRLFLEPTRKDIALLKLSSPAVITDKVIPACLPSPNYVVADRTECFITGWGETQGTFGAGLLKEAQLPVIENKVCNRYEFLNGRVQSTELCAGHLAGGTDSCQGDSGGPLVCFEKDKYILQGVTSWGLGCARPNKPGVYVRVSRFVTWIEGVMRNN
# T3: native plasminogen glycoform II (purified in-house from human plasma), P00747
# T3 chain: T2 chain
# B1: tissue-type plasminogen activator (protein)
# chain: SYQVICRDEKTQMIYQQHQSWLRPVLRSNRVEYCWCNSGRAQCHSVPVKSCSEPRCFNGGTCQQALYFSDFVCQCPEGFAGKCCEIDTRATCYEDQGISYRGTWSTAESGAECTNWNSSALAQKPYSGRRPDAIRLGLGNHNYCRNPDRDSKPWCYVFKAGKYSSEFCSTPACSEGNSDCYFGNGSAYRGTHSLTESGASCLPWNSMILIGKVYTAQNPSAQALGLGKHNYCRNPDGDAKPWCHVLKNRRLTWEYCDVPSCSTCGLRQYSQPQFRIKGGLFADIASHPWQAAIFAKHRRSPGERFLCGGILISSCWILSAAHCFQERFPPHHLTVILGRTYRVVPGEEEQKFEVEKYIVHKEFDDDTYDNDIALLQLKSDSSRCAQESSVVRTVCLPPADLQLPDWTECELSGYGKHEALSPFYSERLKEAHVRLYPSSRCTSQHLLNRTVTDNMLCAGDTRSGGPQANLHDACQGDSGGPLVCLNDGRMTLVGIISWGLGCGQKDVPGVYTKVTNYLDWIRDNMRP
# Assays:
# recombinant plasminogen = target: T1, recombinant plasminogen
# [1] = target: T2, native plasminogen glycoform I …
# [2] = target: T3, native plasminogen glycoform II …
protein,measurement,setting,value
B1,Km (nM) of Plg activation by tPA,recombinant plasminogen,139 nM
same,Vmax (nM/s) of Plg activation by tPA,recombinant plasminogen,3.47 nM/s
same,"cleavage to plasmin, SDS-PAGE under reducing conditions",recombinant plasminogen,tPA-cleaved recombinant plasmin (rPlm) resulting from the cleavage of rPlg by tPA
same,Km (nM) of Plg activation by tPA,[1],163 nM
same,Vmax (nM/s) of Plg activation by tPA,[1],3.06 nM/s
same,Km (nM) of Plg activation by tPA,[2],146 nM
same,Vmax (nM/s) of Plg activation by tPA,[2],1.67 nM/s
